Measured values: paper PMC6943663, “A Single-Turnover Kinetic Study of DNA Demethylation Catalyzed by Fe(II)/α-Ketoglutarate-Dependent Dioxygenase AlkB”

How the values were obtained:
AlkB [1] = molecular target: T1, AlkB (Escherichia coli, UniProt P05050 1-216); experiment: stopped-flow Trp fluorescence, from rate constants of steps 1-3; Fe(II), aKG; 50 mM HEPES-KOH pH 7.5, 50 mM KCl, 10 mM MgCl2, 40 uM Fe(II), 1 mM aKG, 2 mM ascorbate (composition as given for the anaerobic runs); stopped-flow at 37 C; titration temperature not given in the material; conditions: protein: recombinant; tags: His6; single strand
T1 sequence: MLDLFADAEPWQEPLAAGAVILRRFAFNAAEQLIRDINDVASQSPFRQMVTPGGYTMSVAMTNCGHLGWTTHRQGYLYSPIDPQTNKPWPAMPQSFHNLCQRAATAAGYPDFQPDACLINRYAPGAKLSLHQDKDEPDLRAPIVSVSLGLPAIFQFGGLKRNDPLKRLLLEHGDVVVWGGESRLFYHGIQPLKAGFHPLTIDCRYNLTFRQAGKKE

AlkB [2] = molecular target: T1, AlkB; experiment: stopped-flow FRET; Fe(II), aKG; 50 mM HEPES-KOH pH 7.5, 50 mM KCl, 10 mM MgCl2, 40 uM Fe(II), 1 mM aKG, 2 mM ascorbate (composition as given for the anaerobic runs); stopped-flow at 37 C; titration temperature not given in the material; conditions: protein: recombinant; tags: His6; label: 5'-FAM, 3'-BHQ1 on strand 1; blunt
AlkB [3] = molecular target: T1, AlkB; experiment: stopped-flow 2aPu fluorescence, global fit (enzyme-product complex); Fe(II), aKG; after turnover; 50 mM HEPES-KOH pH 7.5, 50 mM KCl, 10 mM MgCl2, 40 uM Fe(II), 1 mM aKG, 2 mM ascorbate (composition as given for the anaerobic runs); stopped-flow at 37 C; titration temperature not given in the material; conditions: protein: recombinant, tags: His6, label: 2-aminopurine
AlkB [4] = molecular target: T1, AlkB; experiment: stopped-flow FRET, global fit (enzyme-product complex); Fe(II), aKG; after turnover; 50 mM HEPES-KOH pH 7.5, 50 mM KCl, 10 mM MgCl2, 40 uM Fe(II), 1 mM aKG, 2 mM ascorbate (composition as given for the anaerobic runs); stopped-flow at 37 C; titration temperature not given in the material; conditions: protein: recombinant, tags: His6, label: 5'-FAM

Binder: ACAGGATCCGGCATA (ssDNA, N1-methyladenine at position 6) [ss15m1A]
- Kd (AlkB [1]): 4.3 nM

B1: ds15m1A_FRET (dsDNA)
DNA 1: ACAGGATCCGGCATA
DNA 2: TATGCCGGATCCTGT
modifications: N1-methyladenine at position 6 of strand 1
- binding result (AlkB [2]): binds

B2: ds15A_2aPu (demethylated product of ds15m1A_2aPu) (dsDNA)
DNA 1: ACAGGAACCGGCATA
DNA 2: TATGCCGGTTCCTGT
modifications: 2-aminopurine at position 7 of strand 1 (written A)
- Kd (AlkB [3]; blunt): 1800 nM

Binder: ACAGGATCCGGCATA (ssDNA) [ss15A_FRET (demethylated product of ss15m1A_FRET)]
- Kd (AlkB [4]; 3'-BHQ1, single strand): 310 nM

B3: ds15A_FRET (demethylated product of ds15m1A_FRET) (dsDNA)
DNA 1: ACAGGATCCGGCATA
DNA 2: TATGCCGGATCCTGT
- Kd (AlkB [4]; 3'-BHQ1 on strand 1, blunt): 4400 nM

Binder: ACAGGAACCGGCATA (ssDNA, 2-aminopurine at position 7 (written A)) [ss15A_2aPu (demethylated product of ss15m1A_2aPu)]
- Kd (AlkB [3]; single strand): 2200 nM
